Measurements published in US8975044B2, “Polynucleotides encoding for frizzled-binding agents and uses thereof” (OncoMed Pharmaceuticals, Inc., priority 2008, dated 2015).
pKd: −log10 of the molar value. Each block holds one molecule with its values, some of them ahead of it.

Legend:
FZD7 [1] = biological target: T1, FZD7 (Homo sapiens, UniProt O75084); test: FACS binding to FZD-transfected HEK293 cells; parameters: plasmid DNA expressing full-length FZD1, 2, 5, 7 or 8; expressed in transfected cells; host or cells: HEK293; details: FACS MFI dose-response, full-length FZD in HEK293, 20 μg/ml 4-fold dilutions
Protocol: (§1) To measure antibody binding to FZD by flow cytometry HEK293 cells were co-transfected with FZD expression vectors and the transfection marker GFP. Twenty-four to forty-eight hours post-transfection, cells were collected in suspension and incubated on ice with anti-FZD antibodies (10 μg/ml unless otherwise indicated) or control IgG to detect background antibody binding. The cells were washed and primary antibodies detected with Fc domain-specific secondary antibodies conjugated to a fluorescent chromophore (e.g. phycoerythrin conjugated anti-human IgG). Labeled cells were then analyzed by flow cytometry to identify anti-FZD antibodies that specifically recognize cell surface expression of FZD protein. Monoclonal antibodies 18R5 and 18R8 recognized FZD on transfected cells. As shown in FIG. 1 and FIG. 2, both 18R8 and 18R5 bind to multiple FZD including FZD1, FZD2, FZD5, FZD7, and FZD8. […]
(§2) HEK293 cells were co-transfected with a plasmid DNA expressing full-length FZD1, 2, 5, 7 or 8 along with another plasmid expressing the reporter gene GFP used as a transfection marker. […] The cells were washed and bound anti-Fzd antibodies were detected with a secondary anti-human antibody conjugated to a fluorescent chromophore. Labeled cells were then detected and counted by FACS. The FACS data generated were expressed in Mean Fluorescence Intensity (MFI) units. […]

FZD7 [2] = biological target: T1, FZD7; test: Biacore affinity to recombinant Fzd Fc protein; format: binding; parameters: Fc (C); details: IgG antibody; Fzd Fc immobilized on CM5 Biacore chip
Protocol: The KDs of 18R8 and 18R5 antibodies were determined using the Biacore 2000 system from Biacore Lifescience (GE Healthcare). Specifically, purified anti-Fzd7 antibodies were serially diluted in 2-fold increments from 100 to 0.78 nM in HBS-P (0.01 M HEPES pH 7.4, 0.15 M NaCl, 0.005% v/v Surfactant P20). Each dilution was tested against recombinant Fzd Fc proteins immobilized onto a CM5 Biacore chip. The association and dissociation rates were measured and KD values determined using the Biaevaluation software program (Table 5, below).

FZD1 = biological target: T2, FZD1 (Homo sapiens, UniProt Q9UP38); test: FACS binding to FZD-transfected HEK293 cells; details: FACS MFI dose-response, full-length FZD in HEK293, 20 μg/ml 4-fold dilutions
T2 construct: plasmid DNA expressing full-length FZD1, 2, 5, 7 or 8; expressed in transfected cells; host or cells: HEK293
Protocol: as §1, §2

FZD2 = biological target: T3, FZD2 (Homo sapiens, UniProt Q14332); test: FACS binding to FZD-transfected HEK293 cells; details: FACS MFI dose-response, full-length FZD in HEK293, 20 μg/ml 4-fold dilutions
T3 construct: plasmid DNA expressing full-length FZD1, 2, 5, 7 or 8; expressed in transfected cells; host or cells: HEK293
Protocol: as §1, §2

OMP-C28 tumors = test: Flow cytometry of ESA and CD44 on cells of treated OMP-C28 tumors; format: in vivo, NOD/SCID mice; details: tumors harvested day 48; control antibody 64%
Protocol: Control and treated tumors from the OMP-C28 xenograft study described above (Example 7) were harvested at the end of the study (day 48). The tumors were processed and dissociated into single cells. Tumor cells were then incubated with biotinylated mouse antibodies (α-mouse CD45-biotin 1:200 dilution and rat α-mouse H2 Kd-biotin 1:100 dilution, BioLegend, San Diego, Calif.) on ice for 30 min followed by addition of streptavidin-labeled magnetic beads (Invitrogen, Carlsbad, Calif.) to remove mouse cells with the aid of a magnet.
For analysis of cell surface markers, the single tumor cell suspension was stained with anti-ESA (Biomeda) and anti-CD44 (BD Biosciences) antibodies which were directly conjugated to fluorochromes. Dead cells were excluded by using the viability dye DAPI. Flow cytometry was performed using a FACS Aria (Becton Dickinson). Side scatter and forward scatter profiles were used to eliminate cell clumps.

OMP-Pn4 tumors = test: Limiting dilution assay of cancer stem cell frequency in treated OMP-Pn4 tumors; format: in vivo, NOD/SCID mice; details: tumors after 41 days treatment; 30-810 cells re-injected, 75 days; L-Calc
Protocol: Control and treated tumors from the OMP-Pn4 xenograft study described above (Example 7) were harvested at the end of 41 days treatment. The tumors were processed and dissociated into single cells. Tumor cells were then incubated with biotinylated mouse antibodies (α-mouse CD45-biotin 1:200 dilution and rat α-mouse H2 Kd-biotin 1:100 dilution, BioLegend, San Diego, Calif.) on ice for 30 min followed by addition of streptavidin-labeled magnetic beads (Invitrogen, Carlsbad, Calif.) to remove mouse cells. The remaining human cells in the suspension were collected, counted and diluted to appropriate cell doses (30, 90, 270 and 810 cells), mixed in the mixture of 1:1 (v/v) FACS buffer and Matrigel and injected subcutaneously in NOD/SCID mice (10 mice per cell dose per treatment group). Each dot in FIG. 40 represents the tumor volume of an individual mouse. The percentage of mice with detectable tumors was determined in all groups injected with anti-FZD antibody treated tumor cells and compared to the percentage of mice with detectable tumors in the controls. For example, the number of mice injected with 810 control-treated tumor cells that have detectable tumors was determined and compared to the number of mice injected with 810 FZD-antibody treated tumor cells that have detectable tumors. […]

T2 sequence (Q9UP38 70-647): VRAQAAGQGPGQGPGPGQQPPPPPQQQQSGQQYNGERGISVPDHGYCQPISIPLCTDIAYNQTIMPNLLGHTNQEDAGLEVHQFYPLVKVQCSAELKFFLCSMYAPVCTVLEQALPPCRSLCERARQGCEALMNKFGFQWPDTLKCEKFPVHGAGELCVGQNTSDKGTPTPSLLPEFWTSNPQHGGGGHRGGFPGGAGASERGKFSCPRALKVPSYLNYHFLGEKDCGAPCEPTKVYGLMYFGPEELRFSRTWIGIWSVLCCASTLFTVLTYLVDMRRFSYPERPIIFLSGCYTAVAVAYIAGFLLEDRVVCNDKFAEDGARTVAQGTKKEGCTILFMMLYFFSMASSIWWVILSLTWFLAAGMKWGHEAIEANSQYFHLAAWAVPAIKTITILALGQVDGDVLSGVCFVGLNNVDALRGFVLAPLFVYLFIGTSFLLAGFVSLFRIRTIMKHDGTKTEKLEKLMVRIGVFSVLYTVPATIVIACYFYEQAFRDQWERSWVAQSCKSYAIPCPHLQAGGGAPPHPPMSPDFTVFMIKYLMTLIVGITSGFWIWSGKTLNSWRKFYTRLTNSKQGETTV
T3 sequence (Q14332 24-565): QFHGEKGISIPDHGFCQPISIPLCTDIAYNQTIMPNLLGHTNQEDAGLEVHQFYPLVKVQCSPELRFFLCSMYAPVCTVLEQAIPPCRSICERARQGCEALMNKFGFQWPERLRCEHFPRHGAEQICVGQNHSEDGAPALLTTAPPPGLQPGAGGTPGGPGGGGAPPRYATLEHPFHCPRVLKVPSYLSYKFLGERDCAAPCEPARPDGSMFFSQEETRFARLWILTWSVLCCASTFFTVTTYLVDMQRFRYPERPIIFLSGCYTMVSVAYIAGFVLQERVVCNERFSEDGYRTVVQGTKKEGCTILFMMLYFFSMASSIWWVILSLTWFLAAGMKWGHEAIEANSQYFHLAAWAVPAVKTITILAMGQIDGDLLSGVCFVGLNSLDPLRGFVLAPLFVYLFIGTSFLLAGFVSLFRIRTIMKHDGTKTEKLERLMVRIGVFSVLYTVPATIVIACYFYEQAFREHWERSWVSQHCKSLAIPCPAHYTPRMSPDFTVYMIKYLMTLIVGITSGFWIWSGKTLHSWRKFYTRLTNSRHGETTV

- EC50 (FZD7 [1]): 0.58 nM
- pKd (FZD7 [2]): 8.74
- EC50 (FZD1): 0.41 nM
- EC50 (FZD2): 0.62 nM
Molecule: 18R5: human anti-FZD antibody; VH SEQ ID NO:10 (as 18R8), VL SEQ ID NO:14; binds FZD1, 2, 5, 7, 8

Molecule: CCc1c2c(nc3ccc(OC(=O)N4CCC(N5CCCCC5)CC4)cc13)-c1cc3c(c(=O)n1C2)COC(=O)[C@]3(O)CC [irinotecan, reference compound]
- bulk tumor population expressing both ESA and CD44 at high levels (double positive) (OMP-C28 tumors): 55%

Molecule: Nc1ccn([C@@H]2O[C@H](CO)[C@@H](O)C2(F)F)c(=O)n1 [gemcitabine, reference compound]
- cancer stem cell frequency (OMP-Pn4 tumors): had no effect
